Source: article PMC4753479, “A CAPS-based binding assay provides semi-quantitative validation of protein-DNA interactions”

Experiments:
[1] = molecular target: T1, rOsVAL2-B3 (rice, UniProt Q6Z3U3 144-517); assay: restriction protection (CBA); conditions: NsiI, same inhibitory effect as 5 ug rOsGD1-B3, 150 ng DNA in 15 ul, CBA: restriction enzyme buffer, 1-7 ug protein, 30 min at 37 C then 1 h digestion at 37 C, pull-down: 1 ug biotinylated DNA, 12 h …
T1 sequence: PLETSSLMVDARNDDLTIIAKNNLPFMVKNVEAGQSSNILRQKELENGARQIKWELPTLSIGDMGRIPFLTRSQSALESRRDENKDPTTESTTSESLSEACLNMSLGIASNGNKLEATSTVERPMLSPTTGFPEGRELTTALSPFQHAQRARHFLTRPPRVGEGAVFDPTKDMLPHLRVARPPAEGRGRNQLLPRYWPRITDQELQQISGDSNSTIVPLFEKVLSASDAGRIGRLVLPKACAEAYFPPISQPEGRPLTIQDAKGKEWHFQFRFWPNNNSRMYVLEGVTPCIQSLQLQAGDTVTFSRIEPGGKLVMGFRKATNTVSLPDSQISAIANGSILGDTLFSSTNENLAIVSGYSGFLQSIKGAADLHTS

[2] = molecular target: T2, rOsGD1-B3 (rice, UniProt Q0D5G4 342-640); assay: restriction protection (CBA); conditions: 150 ng DNA in 15 ul, CBA: restriction enzyme buffer, 1-7 ug protein, 30 min at 37 C then 1 h digestion at 37 C, pull-down: 1 ug biotinylated DNA, 12 h …
T2 sequence: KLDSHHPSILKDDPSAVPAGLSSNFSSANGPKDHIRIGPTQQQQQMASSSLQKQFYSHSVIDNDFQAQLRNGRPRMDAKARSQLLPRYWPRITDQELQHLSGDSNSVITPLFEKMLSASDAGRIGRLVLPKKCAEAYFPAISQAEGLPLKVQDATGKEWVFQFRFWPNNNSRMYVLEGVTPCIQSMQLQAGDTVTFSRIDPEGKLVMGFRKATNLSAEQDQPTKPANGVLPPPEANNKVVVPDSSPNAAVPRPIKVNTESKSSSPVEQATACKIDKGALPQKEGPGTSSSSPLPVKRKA

[3] = molecular target: T1, rOsVAL2-B3; assay: pull-down; stronger than rOsGD1-B3; CBA: restriction enzyme buffer, 150 ng DNA, 1-7 ug protein, 15 ul, 30 min at 37 C then 1 h digestion at 37 C; pull-down: 1 ug biotinylated DNA, 12 h, streptavidin-agarose, wash TBS (20 mM Tris, 150 mM NaCl), competitors 5x/10x/20x; conditions: protein: recombinant; tags: 6xHis (pGoldI); label: 5' biotin, both strands; blunt
[4] = molecular target: T2, rOsGD1-B3; assay: pull-down; weaker than rOsVAL2-B3; CBA: restriction enzyme buffer, 150 ng DNA, 1-7 ug protein, 15 ul, 30 min at 37 C then 1 h digestion at 37 C; pull-down: 1 ug biotinylated DNA, 12 h, streptavidin-agarose, wash TBS (20 mM Tris, 150 mM NaCl), competitors 5x/10x/20x; conditions: protein: recombinant; tags: 6xHis (pGoldI); label: 5' biotin, both strands; blunt

WT RY-DNA 420 bp
binding signal [1]: 3 µg protein
protein amount for inhibition of NsiI digestion [2]: 5 µg protein

B1: WT RY pull-down probe (dsDNA)
DNA 1: TAATTGCATGCATATATGCACGC
DNA 2: GCGTGCATATATGCATGCAATTA
binding result [3]: binds
binding result [4]: binds
